# B1: S2P6 Fab fragment (Fab, V domains shown)
# VH: EVQLVQSGAEVKKPGASVKVSCKASGYTFTSQYMHWVRQAPGQGLEWIGIINPSGVHTSYAQKFQGRVTLTRDTSTSTLYMELSSLRSEDTAVYYCARGSPKGAFDYWGQGTLVTVSS
# VL: not shown
# Molecular target: HKU1 S 2P prefusion-stabilized ectodomain trimer (HCoV-HKU1, isolate  (N5 used), UniProt Q0ZME7, stabilised)
# Experiment: SPR
binder,measurement,value
B1,Kd,~120 nM
